Laboratory results published in patent US20110263824A1.

Experiments:
human serum protein [1] = experiment: adsorption to human serum protein-immobilized magnetic beads, western blot quantification
human serum protein [2] = experiment: summary of Example 1-9: adsorption to human serum protein-immobilized magnetic beads
human serum protein [3] = experiment: adsorption of TM2 variant to human serum protein-immobilized magnetic beads, western blot quantification
human serum protein [4] = experiment: human serum (1:800) adsorbed to TM2 variant-immobilized magnetic beads, HRP-labeled anti-human IgG detection
human serum protein [5] = experiment: adsorption of TM2 to human serum protein-immobilized magnetic beads, western blot quantification (reference)
human serum protein [6] = experiment: human serum (1:800) adsorbed to TM2-immobilized magnetic beads, HRP-labeled anti-human IgG detection

Binder | decrease of adsorption to human serum protein compared to the wild type TM2 (human serum protein [1]) [%] | non-specific binding and adsorption relative to wild type TM2 (% of wild type TM2) (human serum protein [2]) | Non-specific binding of serum protein (%) (% of wild type TM2) (human serum protein [3]) | Non-specific binding to serum protein (A450) (human serum protein [4]) | Non-specific binding of serum protein (%) (% of wild type TM2) (human serum protein [5]) | Non-specific binding to serum protein (A450) (human serum protein [6])
TM2 K26A (protein) MSDVQSSLTGTWYNELNSKMELTANADGTLTGKYLSKVGDVYVPYPLSGRYNLQPPAGQGVALGWAVSWENSKIHSATTWSGQFFSESSPVILTQWLLSSSTARGDVWESTLVGNDSFTKTAPTEQQIAHAQLHCRAPRLK | 30 | 60 | 68 |  |  | 
TM2 D40NR104EK141E (protein) MSDVQSSLTGTWYNELNSKMELTANKDGTLTGKYLSKVGNVYVPYPLSGRYNLQPPAGQGVALGWAVSWENSKIHSATTWSGQFFSESSPVILTQWLLSSSTAEGDVWESTLVGNDSFTKTAPTEQQIAHAQLHCRAPRLE |  |  |  | 0.45 |  | 
TM2 K141E (protein) MSDVQSSLTGTWYNELNSKMELTANKDGTLTGKYLSKVGDVYVPYPLSGRYNLQPPAGQGVALGWAVSWENSKIHSATTWSGQFFSESSPVILTQWLLSSSTARGDVWESTLVGNDSFTKTAPTEQQIAHAQLHCRAPRLE | 40 | 60 | 58 |  |  | 
TM2 K73Q (protein) MSDVQSSLTGTWYNELNSKMELTANKDGTLTGKYLSKVGDVYVPYPLSGRYNLQPPAGQGVALGWAVSWENSQIHSATTWSGQFFSESSPVILTQWLLSSSTARGDVWESTLVGNDSFTKTAPTEQQIAHAQLHCRAPRLK | 40 | 60 | 55 |  |  | 

Other lines, results leading:

decrease of adsorption to human serum protein compared to the wild type TM2 (human serum protein [1]) [%] | non-specific binding and adsorption relative to wild type TM2 (% of wild type TM2) (human serum protein [2]) | Non-specific binding of serum protein (%) (% of wild type TM2) (human serum protein [3]) | Non-specific binding to serum protein (A450) (human serum protein [4]) | Non-specific binding of serum protein (%) (% of wild type TM2) (human serum protein [5]) | Non-specific binding to serum protein (A450) (human serum protein [6]) | Binder
10 |  | 90 |  |  |  | TM2 R104E (protein) MSDVQSSLTGTWYNELNSKMELTANKDGTLTGKYLSKVGDVYVPYPLSGRYNLQPPAGQGVALGWAVSWENSKIHSATTWSGQFFSESSPVILTQWLLSSSTAEGDVWESTLVGNDSFTKTAPTEQQIAHAQLHCRAPRLK
70 | 20 | 25 |  |  |  | TM2 R104EK141E (protein) MSDVQSSLTGTWYNELNSKMELTANKDGTLTGKYLSKVGDVYVPYPLSGRYNLQPPAGQGVALGWAVSWENSKIHSATTWSGQFFSESSPVILTQWLLSSSTAEGDVWESTLVGNDSFTKTAPTEQQIAHAQLHCRAPRLE
 |  |  |  | 100 | 0.67 | tamavidin 2 (wild type) (protein) MSDVQSSLTGTWYNELNSKMELTANKDGTLTGKYLSKVGDVYVPYPLSGRYNLQPPAGQGVALGWAVSWENSKIHSATTWSGQFFSESSPVILTQWLLSSSTARGDVWESTLVGNDSFTKTAPTEQQIAHAQLHCRAPRLK
